We go through 2 proteins from publication PMC4801511.

Substrate in the data set: Cc1cc(=O)oc2c(F)c(OP(=O)(O)O)c(F)cc12
The experiment in a line: DiFMUP fluorescence phosphatase assay, Michaelis-Menten fit. It is filed as biochemical, Homo sapiens. Particulars: 20 mM tris-acetate pH 6.0, 150 mM NaCl, BSA 0.1 mg/ml.

B1: RPAP2_32–274 (Homo sapiens) (protein)
chain: LKQEDASKRKAELEAAVRKKIEFERKALHIVEQLLEENITEEFLMECGRFITPAHYSDVVDERSIVKLCGYPLCQKKLGIVPKQKYKISTKTNKVYDITERKSFCSNFCYQASKFFEAQIPKTPVWVREEERHPDFQLLKEEQSGHSGEEVQLCSKAIKTSDIDNPSHFEKQYESSSSSTHSDSSSDNEQDFVSSILPGNRPNSTNIRPQLHQKSIMKKKAGHKANSKHKDKEQTVVDVTEQL
For orientation: Km means the substrate concentration at which the rate is half of its maximum. As a reminder, the kcat/Km is the second-order rate constant that governs catalysis at low substrate concentration. Turning to B1, the Km is 30.95 ± 1.75 µM and the kcat/Km is 833000 M⁻¹ s⁻¹.

B2: RPAP2_32–345 (Homo sapiens) (protein)
chain: LKQEDASKRKAELEAAVRKKIEFERKALHIVEQLLEENITEEFLMECGRFITPAHYSDVVDERSIVKLCGYPLCQKKLGIVPKQKYKISTKTNKVYDITERKSFCSNFCYQASKFFEAQIPKTPVWVREEERHPDFQLLKEEQSGHSGEEVQLCSKAIKTSDIDNPSHFEKQYESSSSSTHSDSSSDNEQDFVSSILPGNRPNSTNIRPQLHQKSIMKKKAGHKANSKHKDKEQTVVDVTEQLGDCKLDSQEKDATCELPLQKVNTQSSSNSTLPERLKASENSESEYSRSEITLVGISKKSAEHFKRKFAKSN
Regarding B2, the Km was found to be 34.20 ± 0.84 µM and the kcat/Km turned out to be 333000 M⁻¹ s⁻¹.
